Results as given in paper PMC12121997.

Legend:
[1] = target: Nucleosome core particle: Cse4-containing histone octamer wrapped with chimeric centromeric DNA (CCEN) (S. cerevisiae | K. lactis) (UniProt P36012); test: optical trap assay (bead-microtubule binding, then rupture force); 40 nM His6-NCPs held on anti-His6 polystyrene beads; 10 nM OA or 20 nM Mif2, 10 nM 2D-MIND, 10 nM Ndc80c and 5 nM Dam1c free in solution; bead brought by laser trap to the dynamic plus end of a surface-anchored microtubule; 1x BRB80, 1 mM GTP, 16 uM tubulin, room temperature; 1 pN preload, then ramping force until detachment; negative controls with OA or Mif2 omitted
[2] = target: Nucleosome core particle: Cse4-containing histone octamer wrapped with Widom 601 DNA (S. cerevisiae | K. lactis) (UniProt P36012); test: as above

Q: “Mif2-linker-(27-392)MBP (from UniProt P35201 1-549) (natural protein)” was tested. Which percent of NCP-coated beads that bound microtubules [1] did it give?
A: The percent of NCP-coated beads that bound microtubules was greater than 78%.

Q: And the percent of NCP-coated beads that bound microtubules [2]?
A: The percent of NCP-coated beads that bound microtubules was greater than 78%.
